Test results reported in publication PMC4701441, “Directed Evolution of a Highly Specific FN3 Monobody to the SH3 Domain of Human Lyn Tyrosine Kinase” (PLoS ONE, 2016).

Target: T1, GST-Lyn SH3 domain (human, UniProt P07948 63-123)
T1 construct: SH3 domain of human Lyn tyrosine kinase; Plasmid derived from pGEX-2T; also called GST fusion to the SH3 domain of Lyn
Experiment: ELISA; competition ELBA: GST-Lyn SH3 domain coated at 5 μg/mL, peptide at 0.1 μM to 40 μM added along with TA8-alkaline phosphatase fusion for 1 h
Settings: both partners purified

T1 sequence (P07948 63-123): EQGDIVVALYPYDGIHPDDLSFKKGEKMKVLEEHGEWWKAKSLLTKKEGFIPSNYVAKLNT

B1: Tip peptide, proline-rich peptide of the tyrosine kinase interacting protein (Tip) of herpesvirus saimiri (peptide)
peptide: GMPTPPLPPRPANLGERQA
binding result: binds
